Key:
[1] = biological target: β1 integrins on human neutrophils (human, UniProt P05556 21-798); assay: cell-based or functional assay
[2] = biological target: β3 integrins on human neutrophils (human, UniProt P05106 27-788); assay: cell-based or functional assay
β3 integrins on human neutrophils, sequence (P05106 27-788): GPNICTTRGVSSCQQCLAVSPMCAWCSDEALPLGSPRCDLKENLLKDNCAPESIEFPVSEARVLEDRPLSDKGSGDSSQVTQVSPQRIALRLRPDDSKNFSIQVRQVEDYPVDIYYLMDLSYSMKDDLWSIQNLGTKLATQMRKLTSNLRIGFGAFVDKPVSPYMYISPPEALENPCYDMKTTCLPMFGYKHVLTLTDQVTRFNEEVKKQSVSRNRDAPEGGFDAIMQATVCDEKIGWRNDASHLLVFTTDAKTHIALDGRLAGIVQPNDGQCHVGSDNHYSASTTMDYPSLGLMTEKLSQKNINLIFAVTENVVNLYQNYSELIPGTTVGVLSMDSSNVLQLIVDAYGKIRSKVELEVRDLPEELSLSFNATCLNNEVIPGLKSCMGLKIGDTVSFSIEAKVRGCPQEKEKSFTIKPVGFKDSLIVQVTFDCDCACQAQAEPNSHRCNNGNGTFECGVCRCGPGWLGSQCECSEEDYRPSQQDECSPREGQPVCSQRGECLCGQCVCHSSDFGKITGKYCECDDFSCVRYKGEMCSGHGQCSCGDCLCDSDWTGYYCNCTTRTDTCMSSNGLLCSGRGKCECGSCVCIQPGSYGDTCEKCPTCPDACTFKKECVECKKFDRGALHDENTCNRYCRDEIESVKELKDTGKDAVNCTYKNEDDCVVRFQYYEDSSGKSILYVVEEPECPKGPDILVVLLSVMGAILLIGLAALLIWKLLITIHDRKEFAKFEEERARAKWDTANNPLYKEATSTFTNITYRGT

β1 integrins on human neutrophils, sequence (P05556 21-798): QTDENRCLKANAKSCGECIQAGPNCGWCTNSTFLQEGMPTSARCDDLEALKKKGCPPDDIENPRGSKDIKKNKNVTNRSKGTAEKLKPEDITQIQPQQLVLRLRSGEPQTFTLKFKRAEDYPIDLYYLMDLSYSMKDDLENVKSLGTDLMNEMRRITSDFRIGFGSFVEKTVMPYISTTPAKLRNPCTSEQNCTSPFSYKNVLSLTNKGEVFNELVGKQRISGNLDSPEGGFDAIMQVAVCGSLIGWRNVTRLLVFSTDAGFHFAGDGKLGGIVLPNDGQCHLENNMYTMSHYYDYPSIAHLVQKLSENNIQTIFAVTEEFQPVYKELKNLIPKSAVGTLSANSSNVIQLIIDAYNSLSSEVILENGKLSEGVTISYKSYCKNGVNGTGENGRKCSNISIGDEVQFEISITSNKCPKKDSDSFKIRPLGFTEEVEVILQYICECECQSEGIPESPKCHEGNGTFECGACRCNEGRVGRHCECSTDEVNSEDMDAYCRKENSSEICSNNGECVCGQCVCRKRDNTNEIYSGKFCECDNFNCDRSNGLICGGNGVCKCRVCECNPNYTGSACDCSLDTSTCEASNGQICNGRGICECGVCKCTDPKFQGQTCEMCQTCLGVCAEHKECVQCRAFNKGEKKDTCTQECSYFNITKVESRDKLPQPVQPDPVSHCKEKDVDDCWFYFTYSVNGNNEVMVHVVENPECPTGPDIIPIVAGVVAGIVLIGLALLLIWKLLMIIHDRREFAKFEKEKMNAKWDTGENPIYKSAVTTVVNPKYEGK

average lateral migration speed (S) of neutrophils on FN toward fMLP, micropipette assay [1]: 2.5 fold
average lateral migration speed (S) of neutrophils on FN toward fMLP, micropipette assay [2]: 2.5 fold
B1: Recombinant human activated protein C (enzyme)
chain 1: ANSFLEELRHSSLERECIEEICDFEEAKEIFQNVDDTLAFWSKHVDGDQCLVLPLEHPCASLCCGHGTCIDGIGSFSCDCRSGWEGRFCQREVSFLNCSLDNGGCTHYCLEEVGWRRCSCAPGYKLGDDLLQCHPAVKFPCGRPWKRMEKKRSHL
chain 2: LIDGKMTRRGDSPWQVVLLDSKKKLACGAVLIHPSWVLTAAHCMDESKKLLVRLGEYDLRRWEKWELDLDIKEVFVHPNYSKSTTDNDIALLHLAQPATLSQTIVPICLPDSGLAERELNQAGQETLVTGWGYHSSREKEAKRNRTFVLNFIKIPVVPHNECSEVMSNMVSENMLCAGILGDRQDACEGDSGGPMVASFHGTWFLVGLVSWGEGCGLLHNYGVYTKVSRYLDWIHGHIRDKEAPQKSWAP

— patent publication US20110280859A1 (UNIVERSITY OF ROCHESTER, published 2011)
